Experimental data: patent US20250270287A1 (KEROS THERAPEUTICS, published 2025)
Each block holds one binder with its values, some of them ahead of it.

Experiments:
[1] = biological target: T1, ActRIIB-A1 (SEQ ID NO: 120) chimera-Fc protein (Homo sapiens (Human), UniProt Q13705 28-134); assay: SPR (Biacore 8K), Fc protein captured on anti-human IgG, ligand injected
T1 construct: Tested as chimera-Fc protein; not shown: linker (if any) and Fc domain
T1 sequence: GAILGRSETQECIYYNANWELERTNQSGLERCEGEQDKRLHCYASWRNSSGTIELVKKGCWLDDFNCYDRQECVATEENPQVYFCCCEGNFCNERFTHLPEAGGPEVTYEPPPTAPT
Description: (§1) The Cytiva Biacore 8k was used to measure the kinetics of the interactions between the ActRII- and chimera-Fc proteins and Activin A/Activin B/growth differentiation factor 8 (GDF-8)/GDF-11/BMP-9/BMP-10. Series S CM4 Sensor Chips were immobilized with anti-human capture antibody using the reagents and protocol in the Biacore Human Antibody Capture Kit (GE Life Sciences). Briefly, anti-human IgG was diluted to 25 μg/mL in immobilization buffer. The carboxylated surface of the sensor was activated by injecting a mixture of EDC and NHS. The anti-human IgG was injected into the activated sensor chip flow cells at 10 μL/min for a total of 7 minutes until the chip reached an immobilization level of 3000 resonance units (RU). Ethanolamine was injected to deactivate the sensor surfaces. The chip has 8 flow cells to be used for binding analysis, each with an in-line reference surface to subtract instrument noise and non-specific binding to the sensor chip. The ActRII- and chimera-Fc proteins were captured in their own flow cell to allow for a maximum analyte binding response of 20-30 RU. This was done by injecting 10-20 μL of the ActRII- and chimera-Fc proteins into the flow cells at a concentration of 2 μg/mL until 60-90 RU was captured. Ligand at a single concentration was injected at […] for 60 seconds and then allowed to dissociate under buffer flow for no less than 5 minutes. After the cycle completed, captured protein was stripped from the chip with an injection of 3 M magnesium chloride, the regeneration buffer provided with the Biacore Human Antibody Capture Kit. Each ligand was injected in a concentration series, including a buffer only 0 nM concentration to serve as a double reference for subtracting out instrument noise. The data were analyzed using the Biacore Insight Evaluation Software.

[2] = biological target: T2, ActRIIB (SEQ ID NO: 31) Fc protein (human, UniProt Q13705 20-134); assay: as above
T2 construct: also called ActRII-Fc; wild-type extracellular ActRIIB; not shown: linker (if any) and Fc domain
T2 sequence: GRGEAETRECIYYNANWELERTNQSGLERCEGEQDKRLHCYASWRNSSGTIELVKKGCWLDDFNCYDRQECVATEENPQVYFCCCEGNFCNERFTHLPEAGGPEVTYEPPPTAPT
Description: as §1

B1: GDF-11 (ligand, UniProt O95390 299-407, looked up)
chain: NLGLDCDEHSSESRCCRYPLTVDFEAFGWDWIIAPKRYKANYCSGQCEYMFMQKYPHTHLVQQANPRGSAGPCCTPTKMSPINMLYFNDKQQIIYGKIPGMVVDRCGCS
notes: also called growth and differentiation factor 11
Kd [1]: < 0.001 nM | Kd [2]: < 0.001 nM

B4: BMP-10 (ligand, UniProt O95393 317-424, looked up)
chain: NAKGNYCKRTPLYIDFKEIGWDSWIIAPPGYEAYECRGVCNYPLAEHLTPTKHAIIQALVHLKNSQKASKACCVPTKLEPISILYLDKGVVTYKFKYEGMAVSECGCR
Kd [1]: 0.0175 nM | Kd [2]: 0.0105 nM

The remaining lines, values ahead:

Kd [1]: < 0.001 nM
B2: Activin B (ligand, UniProt P09529 293-407, looked up)
chain: GLECDGRTNLCCRQQFFIDFRLIGWNDWIIAPTGYYGNYCEGSCPAYLAGVPGSASSFHTAVVNQYRMRGLNPGTVNSCCIPTKLSTMSMLYFDDEYNIVKRDVPNMIVEECGCA

Kd [1]: 0.0151 nM | Kd [2]: 0.0358 nM
B3: BMP-9 (ligand, UniProt Q9UK05 320-429, looked up)
chain: SAGAGSHCQKTSLRVNFEDIGWDSWIIAPKEYEAYECKGGCFFPLADDVTPTKHAIVQTLVHLKFPTKVGKACCVPTKLSPISVLYKDDMGVPTLKYHYEGMSVAECGCR
notes: also called bone morphogenetic protein 9
